# B1: ZNF449 (parent)
# chain: FQEYDTDCEVFRQRFRQFQYREAA
# Variants of: B1
# Assay: protein stability index of a GFP-peptide fusion (GPS, HEK-293T) (PSI 1-6); higher = more stable
# Conditions: c terminus: a fixed tail appended
# 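Further: lentivirally expressed fusions sorted by FACS into six bins by GFP to DsRed ratio, PSI derived from sequencing read proportions per bin multiplied by bin number.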
row,Variant,protein stability index
1,V10C,2.52
2,V10P,2.92
3,V10L,2.3
4,V10Q,3.27
5,V10F,2.86
6,V10W,2.13
7,V10S,2.78
8,V10H,3
9,V10G,2.9
10,V10D,3.02
11,V10Y,2.62
12,V10K,2.35
13,V10A,2.2
14,V10E,3.08
15,V10T,2.49
16,V10R,2.37
17,V10M,2.63
18,V10N,2.67
19,V10I,2.5
20,F18I,2.86
21,F18A,3.02
22,F18K,1.76
23,F18N,2.38
24,F18E,2.95

row,Variant,protein stability index
1,F18G,2.4
2,F18D,1.79
3,F18C,1.96
4,F18H,2.4
5,F18L,4.05
6,F18M,3.07
7,R12Y,2.06
8,R12D,3.31
9,R12N,2.27
10,R12S,2.53
11,R12A,3.29
12,R12K,2.38
13,R12H,2.3
14,R12C,1.71
15,R12P,2.35
16,R12T,2.41
17,R12I,2.14
18,R12M,2.24
19,R12V,2.21
20,R12F,2.54
21,R12E,2.48
22,R12Q,2.61
23,R12W,1.94
24,R12L,1.97

row,Variant,protein stability index
1,R12G,2.57
2,Q13N,2.58
3,Q13E,2.51
4,Q13Y,1.75
5,Q13R,2.04
6,Q13V,2.53
7,Q13D,2.6
8,Q13M,1.67
9,Q13P,1.03
10,Q13K,2.22
11,Q13C,2.34
12,Q13G,1.81
13,Q13H,2.53
14,Q13W,2.42
15,Q13A,2.72
16,Q13I,1.94
17,Q13S,2.4
18,Q13L,1.67
19,Q13F,1.87
20,Q13T,2.41
21,F11M,3.27
22,F11H,3.45
23,F11I,2.72
24,F11R,4.69

row,Variant,protein stability index
1,F11C,2.99
2,F11K,3.14
3,F11Y,2.78
4,F11V,3.68
5,F11T,3.15
6,F11D,3.95
7,F11N,3.57
8,F11S,2.94
9,F11P,3.33
10,F11G,3.6
11,F11W,2.37
12,F11L,2.54
13,F11E,3.51
14,F11Q,3.24
15,R14H,2.76
16,R14T,2.75
17,R14D,2.17
18,R14P,1.8
19,R14K,3.16
20,R14W,2.36
21,R14C,2.23
22,R14I,1.9
23,R14L,2.37
24,R14Q,2.32

row,Variant,protein stability index
1,R14S,2.29
2,R14A,2.83
3,R14E,2.69
4,R14V,1.65
5,R14N,2.62
6,R14M,3.51
7,R14G,2.67
8,R14Y,2.35
9,R14F,2.01
10,E9S,1.54
11,E9V,1.79
12,E9T,1.89
13,E9W,2.02
14,E9Y,1.27
15,Q17D,3.13
16,Q17V,2.3
17,Q17G,2.22
18,Q17K,2.42
19,Q17A,2.67
20,Q17T,2.51
21,Q17P,1.97
22,Q17S,2.39
23,Q17M,2.7
24,Q17F,1.71

row,Variant,protein stability index
1,Q17Y,2.86
2,Q17N,2.44
3,Q17I,2.6
4,Q17L,2.75
5,Q17C,2
6,Q17R,2.31
7,Q17W,2.17
8,Q17H,2.44
9,Q17E,2.85
10,R16C,2.07
11,R16N,2.46
12,R16P,2.11
13,R16T,2.28
14,R16V,2.44
15,R16I,2.31
16,R16A,2.51
17,R16F,2.44
18,R16H,1.98
19,R16G,2.44
20,R16D,2.6
21,R16M,3.38
22,R16Y,2.4
23,R16K,2.98
24,R16S,2.21

row,Variant,protein stability index
1,R16W,2.2
2,R16E,2.27
3,R16L,2.59
4,R16Q,2.78
5,F15K,2.22
6,F15D,3.43
7,F15R,2.76
8,F15M,2.84
9,F15Q,3.01
10,F15A,3.02
11,F15H,3.33
12,F15S,2.57
13,F15E,2.92
14,F15Y,2.17
15,F15P,3
16,F15I,2.44
17,F15V,2.98
18,F15T,2.66
19,F15G,2.85
20,F15W,2.62
21,F15L,2.42
22,F15N,2.88
23,F15C,2.83

# Reference: the supplement of paper PMC10567573
